Results from publication PMC2737543, “The crystal structure of Haloferax volcanii proliferating cell nuclear antigen reveals unique surface charge characteristics due to halophilic adaptation” (BMC Structural Biology, 2009).

Target: the molecule itself
Experiment: SEC; 10/300 Superdex 200, 50 mM HEPES pH 7.0, KCl 0.2 to 3.0 M (and equivalent NaCl); protein incubated 4 hours in the buffer before loading; 0.5 ml/min; calibrated with molecular weight standards

B1: Haloferax volcanii proliferating cell nuclear antigen (natural protein)
chain: MFKAIVSAATLRDALDSVSVLVDECKIRLNEESLSIRAVDPANVGMVDLTLDAAAFESYEAHGGVIGVNLSRLEEVAGMAGAGDLIHLTLDEETRKLNIRIDGLSYTLALIDPDSIRQEPDIPDLDLAANIVLEGTHLDRGIKAADMVSDHIRLRVDGAEETFHIEAEGDTDDVDLSLPPADLISIEAGAADSLFSLDYLKDMNKAIPTDAEVTVELGEEFPVKLHYQIAEGMGTITYMLAPRIQSD
notes: Homotrimer; No tag is mentioned; In the model the N-terminal methionine is missing and the C-terminus is not modelled from residue 244; also called HvPCNA; H. volcanii PCNA; source: E. coli B834 (DE3), purified (ammonium sulphate precipitation, Superdex 200, Q-sepharose FF)
- stoichiometry N: 3
